Data as given in US20250218531A1 (ABSCI, published 2025).

B1: Trastuzumab HCDR3 variant ARWYYYGRYYFDY (Fab, V domains shown)
VH: EVQLVESGGGLVQPGGSLRLSCAASGFNIKDTYIHWVRQAPGKGLEWVARIYPTNGYTRYADSVKGRFTISADTSKNTAYLQMNSLRAEDTAVYYCARWYYYGRYYFDYWGQGTLVTVSS
VL: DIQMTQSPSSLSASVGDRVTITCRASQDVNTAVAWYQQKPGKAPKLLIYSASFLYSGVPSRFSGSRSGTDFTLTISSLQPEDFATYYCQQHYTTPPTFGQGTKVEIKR
B2: Trastuzumab HCDR3 variant ARYWYGGYYYFDY (Fab, V domains shown)
VH: EVQLVESGGGLVQPGGSLRLSCAASGFNIKDTYIHWVRQAPGKGLEWVARIYPTNGYTRYADSVKGRFTISADTSKNTAYLQMNSLRAEDTAVYYCARYWYGGYYYFDYWGQGTLVTVSS
VL: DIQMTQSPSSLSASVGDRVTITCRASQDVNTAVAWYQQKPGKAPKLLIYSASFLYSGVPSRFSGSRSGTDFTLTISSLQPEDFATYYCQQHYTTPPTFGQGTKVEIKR
B3: Trastuzumab HCDR3 variant ARYGDGYYYYFAY (Fab, V domains shown)
VH: EVQLVESGGGLVQPGGSLRLSCAASGFNIKDTYIHWVRQAPGKGLEWVARIYPTNGYTRYADSVKGRFTISADTSKNTAYLQMNSLRAEDTAVYYCARYGDGYYYYFAYWGQGTLVTVSS
VL: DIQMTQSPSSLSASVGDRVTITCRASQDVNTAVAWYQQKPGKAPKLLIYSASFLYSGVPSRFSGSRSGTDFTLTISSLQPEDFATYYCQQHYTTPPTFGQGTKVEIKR
B4: Trastuzumab HCDR3 variant ARYYGYGGYWYDT (Fab, V domains shown)
VH: EVQLVESGGGLVQPGGSLRLSCAASGFNIKDTYIHWVRQAPGKGLEWVARIYPTNGYTRYADSVKGRFTISADTSKNTAYLQMNSLRAEDTAVYYCARYYGYGGYWYDTWGQGTLVTVSS
VL: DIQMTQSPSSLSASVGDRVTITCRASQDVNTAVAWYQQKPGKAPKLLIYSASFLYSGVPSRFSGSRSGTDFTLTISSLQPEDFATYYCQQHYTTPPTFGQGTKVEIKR
B5: Trastuzumab HCDR3 variant ARYAHYGPYYFDF (Fab, V domains shown)
VH: EVQLVESGGGLVQPGGSLRLSCAASGFNIKDTYIHWVRQAPGKGLEWVARIYPTNGYTRYADSVKGRFTISADTSKNTAYLQMNSLRAEDTAVYYCARYAHYGPYYFDFWGQGTLVTVSS
VL: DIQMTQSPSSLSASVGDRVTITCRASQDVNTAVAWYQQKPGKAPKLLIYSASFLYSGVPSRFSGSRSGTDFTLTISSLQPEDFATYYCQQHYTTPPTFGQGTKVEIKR
B6: Trastuzumab HCDR3 variant ARYVGLGGYPLGY (Fab, V domains shown)
VH: EVQLVESGGGLVQPGGSLRLSCAASGFNIKDTYIHWVRQAPGKGLEWVARIYPTNGYTRYADSVKGRFTISADTSKNTAYLQMNSLRAEDTAVYYCARYVGLGGYPLGYWGQGTLVTVSS
VL: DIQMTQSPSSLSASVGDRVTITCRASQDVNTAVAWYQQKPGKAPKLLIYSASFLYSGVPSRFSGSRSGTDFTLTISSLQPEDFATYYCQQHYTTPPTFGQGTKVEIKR
B7: Trastuzumab HCDR3 variant ARYEAYGLYPFGY (Fab, V domains shown)
VH: EVQLVESGGGLVQPGGSLRLSCAASGFNIKDTYIHWVRQAPGKGLEWVARIYPTNGYTRYADSVKGRFTISADTSKNTAYLQMNSLRAEDTAVYYCARYEAYGLYPFGYWGQGTLVTVSS
VL: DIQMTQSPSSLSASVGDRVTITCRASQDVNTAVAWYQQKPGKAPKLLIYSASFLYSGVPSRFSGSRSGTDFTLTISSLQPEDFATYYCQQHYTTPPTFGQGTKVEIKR
B8: Trastuzumab HCDR3 variant ARYSAYGLYDFAY (Fab, V domains shown)
VH: EVQLVESGGGLVQPGGSLRLSCAASGFNIKDTYIHWVRQAPGKGLEWVARIYPTNGYTRYADSVKGRFTISADTSKNTAYLQMNSLRAEDTAVYYCARYSAYGLYDFAYWGQGTLVTVSS
VL: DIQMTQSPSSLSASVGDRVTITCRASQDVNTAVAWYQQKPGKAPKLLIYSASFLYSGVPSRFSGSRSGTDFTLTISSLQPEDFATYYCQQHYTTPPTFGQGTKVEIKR
B9: Trastuzumab HCDR3 variant ARYRGYVLYDFAY (Fab, V domains shown)
VH: EVQLVESGGGLVQPGGSLRLSCAASGFNIKDTYIHWVRQAPGKGLEWVARIYPTNGYTRYADSVKGRFTISADTSKNTAYLQMNSLRAEDTAVYYCARYRGYVLYDFAYWGQGTLVTVSS
VL: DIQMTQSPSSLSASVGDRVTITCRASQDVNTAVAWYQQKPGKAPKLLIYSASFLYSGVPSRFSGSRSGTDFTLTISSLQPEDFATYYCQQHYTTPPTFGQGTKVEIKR
B10: Trastuzumab HCDR3 variant AVTDLDGLHSYRY (Fab, V domains shown)
VH: EVQLVESGGGLVQPGGSLRLSCAASGFNIKDTYIHWVRQAPGKGLEWVARIYPTNGYTRYADSVKGRFTISADTSKNTAYLQMNSLRAEDTAVYYCAVTDLDGLHSYRYWGQGTLVTVSS
VL: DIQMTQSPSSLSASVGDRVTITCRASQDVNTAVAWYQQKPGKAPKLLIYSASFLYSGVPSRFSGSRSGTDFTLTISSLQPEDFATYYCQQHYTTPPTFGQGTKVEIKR
B11: Trastuzumab HCDR3 variant ARYGSRYYYYFDY (Fab, V domains shown)
VH: EVQLVESGGGLVQPGGSLRLSCAASGFNIKDTYIHWVRQAPGKGLEWVARIYPTNGYTRYADSVKGRFTISADTSKNTAYLQMNSLRAEDTAVYYCARYGSRYYYYFDYWGQGTLVTVSS
VL: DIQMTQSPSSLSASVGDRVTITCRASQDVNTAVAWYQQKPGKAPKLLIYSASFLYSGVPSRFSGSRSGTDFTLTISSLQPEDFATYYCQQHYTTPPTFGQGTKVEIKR
B12: Trastuzumab HCDR3 variant ARYGSGYYYYFDY (Fab, V domains shown)
VH: EVQLVESGGGLVQPGGSLRLSCAASGFNIKDTYIHWVRQAPGKGLEWVARIYPTNGYTRYADSVKGRFTISADTSKNTAYLQMNSLRAEDTAVYYCARYGSGYYYYFDYWGQGTLVTVSS
VL: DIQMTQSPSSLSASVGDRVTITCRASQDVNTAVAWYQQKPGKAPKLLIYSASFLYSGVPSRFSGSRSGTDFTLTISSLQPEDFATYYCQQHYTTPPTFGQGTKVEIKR
B13: Trastuzumab HCDR3 variant ARYFYDYYYYFDF (Fab, V domains shown)
VH: EVQLVESGGGLVQPGGSLRLSCAASGFNIKDTYIHWVRQAPGKGLEWVARIYPTNGYTRYADSVKGRFTISADTSKNTAYLQMNSLRAEDTAVYYCARYFYDYYYYFDFWGQGTLVTVSS
VL: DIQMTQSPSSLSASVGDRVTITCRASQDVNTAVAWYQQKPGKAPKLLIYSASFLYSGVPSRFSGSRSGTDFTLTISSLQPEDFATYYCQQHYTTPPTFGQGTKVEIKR
B14: Trastuzumab HCDR3 variant ARYGVYPFYYFDY (Fab, V domains shown)
VH: EVQLVESGGGLVQPGGSLRLSCAASGFNIKDTYIHWVRQAPGKGLEWVARIYPTNGYTRYADSVKGRFTISADTSKNTAYLQMNSLRAEDTAVYYCARYGVYPFYYFDYWGQGTLVTVSS
VL: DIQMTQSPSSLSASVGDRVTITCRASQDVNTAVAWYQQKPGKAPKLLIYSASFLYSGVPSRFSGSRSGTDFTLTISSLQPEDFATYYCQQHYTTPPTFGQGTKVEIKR
B15: Trastuzumab HCDR3 variant ARYYYDYYYYFDY (Fab, V domains shown)
VH: EVQLVESGGGLVQPGGSLRLSCAASGFNIKDTYIHWVRQAPGKGLEWVARIYPTNGYTRYADSVKGRFTISADTSKNTAYLQMNSLRAEDTAVYYCARYYYDYYYYFDYWGQGTLVTVSS
VL: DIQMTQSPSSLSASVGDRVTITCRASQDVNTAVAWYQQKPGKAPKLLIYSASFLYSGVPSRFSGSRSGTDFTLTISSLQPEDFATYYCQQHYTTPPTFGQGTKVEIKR
B16: Trastuzumab HCDR3 variant ARYGGGGRYYFDY (Fab, V domains shown)
VH: EVQLVESGGGLVQPGGSLRLSCAASGFNIKDTYIHWVRQAPGKGLEWVARIYPTNGYTRYADSVKGRFTISADTSKNTAYLQMNSLRAEDTAVYYCARYGGGGRYYFDYWGQGTLVTVSS
VL: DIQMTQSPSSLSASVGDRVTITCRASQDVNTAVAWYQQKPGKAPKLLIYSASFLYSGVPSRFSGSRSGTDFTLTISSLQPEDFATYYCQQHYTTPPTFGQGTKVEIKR
B17: Trastuzumab HCDR3 variant ASYGLDGYYYFDV (Fab, V domains shown)
VH: EVQLVESGGGLVQPGGSLRLSCAASGFNIKDTYIHWVRQAPGKGLEWVARIYPTNGYTRYADSVKGRFTISADTSKNTAYLQMNSLRAEDTAVYYCASYGLDGYYYFDVWGQGTLVTVSS
VL: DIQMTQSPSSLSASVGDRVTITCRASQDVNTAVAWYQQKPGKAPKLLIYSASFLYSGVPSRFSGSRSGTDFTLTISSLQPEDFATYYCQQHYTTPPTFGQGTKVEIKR
B18: Trastuzumab HCDR3 variant ARYLQLGPYYFDY (Fab, V domains shown)
VH: EVQLVESGGGLVQPGGSLRLSCAASGFNIKDTYIHWVRQAPGKGLEWVARIYPTNGYTRYADSVKGRFTISADTSKNTAYLQMNSLRAEDTAVYYCARYLQLGPYYFDYWGQGTLVTVSS
VL: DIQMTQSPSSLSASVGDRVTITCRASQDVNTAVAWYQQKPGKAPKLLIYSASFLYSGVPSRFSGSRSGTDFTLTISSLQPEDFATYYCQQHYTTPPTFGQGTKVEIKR
B19: Trastuzumab HCDR3 variant ARYYGYGYYYFHY (Fab, V domains shown)
VH: EVQLVESGGGLVQPGGSLRLSCAASGFNIKDTYIHWVRQAPGKGLEWVARIYPTNGYTRYADSVKGRFTISADTSKNTAYLQMNSLRAEDTAVYYCARYYGYGYYYFHYWGQGTLVTVSS
VL: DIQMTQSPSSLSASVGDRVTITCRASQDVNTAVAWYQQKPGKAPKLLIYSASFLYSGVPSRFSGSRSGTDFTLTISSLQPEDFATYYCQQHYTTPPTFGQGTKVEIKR
B20: Trastuzumab HCDR3 variant ARYSGYGLYPYAY (Fab, V domains shown)
VH: EVQLVESGGGLVQPGGSLRLSCAASGFNIKDTYIHWVRQAPGKGLEWVARIYPTNGYTRYADSVKGRFTISADTSKNTAYLQMNSLRAEDTAVYYCARYSGYGLYPYAYWGQGTLVTVSS
VL: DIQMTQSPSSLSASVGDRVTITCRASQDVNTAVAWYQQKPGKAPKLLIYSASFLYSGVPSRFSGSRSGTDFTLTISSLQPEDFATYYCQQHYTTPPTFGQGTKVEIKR
B21: Trastuzumab HCDR3 variant ARYWGLGGYYFDH (Fab, V domains shown)
VH: EVQLVESGGGLVQPGGSLRLSCAASGFNIKDTYIHWVRQAPGKGLEWVARIYPTNGYTRYADSVKGRFTISADTSKNTAYLQMNSLRAEDTAVYYCARYWGLGGYYFDHWGQGTLVTVSS
VL: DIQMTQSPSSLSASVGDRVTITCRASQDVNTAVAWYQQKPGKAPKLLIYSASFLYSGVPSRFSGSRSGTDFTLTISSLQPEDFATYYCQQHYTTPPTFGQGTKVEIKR
B22: Trastuzumab HCDR3 variant ARYGYYGPYYFDY (Fab, V domains shown)
VH: EVQLVESGGGLVQPGGSLRLSCAASGFNIKDTYIHWVRQAPGKGLEWVARIYPTNGYTRYADSVKGRFTISADTSKNTAYLQMNSLRAEDTAVYYCARYGYYGPYYFDYWGQGTLVTVSS
VL: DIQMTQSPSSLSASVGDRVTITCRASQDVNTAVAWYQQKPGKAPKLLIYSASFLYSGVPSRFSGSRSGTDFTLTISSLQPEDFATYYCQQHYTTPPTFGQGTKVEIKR
B23: Trastuzumab HCDR3 variant ARYYGYGGYYFDY (Fab, V domains shown)
VH: EVQLVESGGGLVQPGGSLRLSCAASGFNIKDTYIHWVRQAPGKGLEWVARIYPTNGYTRYADSVKGRFTISADTSKNTAYLQMNSLRAEDTAVYYCARYYGYGGYYFDYWGQGTLVTVSS
VL: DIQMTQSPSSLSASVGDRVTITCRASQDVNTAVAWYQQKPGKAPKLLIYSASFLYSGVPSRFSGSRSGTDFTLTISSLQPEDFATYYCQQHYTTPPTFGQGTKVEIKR
B24: Trastuzumab HCDR3 variant ARYYSYGQYAFDP (Fab, V domains shown)
VH: EVQLVESGGGLVQPGGSLRLSCAASGFNIKDTYIHWVRQAPGKGLEWVARIYPTNGYTRYADSVKGRFTISADTSKNTAYLQMNSLRAEDTAVYYCARYYSYGQYAFDPWGQGTLVTVSS
VL: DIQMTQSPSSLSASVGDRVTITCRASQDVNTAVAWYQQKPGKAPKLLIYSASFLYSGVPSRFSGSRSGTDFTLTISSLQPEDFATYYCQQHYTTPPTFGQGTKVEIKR
B25: Trastuzumab HCDR3 variant ARYDPYGFYHLDY (Fab, V domains shown)
VH: EVQLVESGGGLVQPGGSLRLSCAASGFNIKDTYIHWVRQAPGKGLEWVARIYPTNGYTRYADSVKGRFTISADTSKNTAYLQMNSLRAEDTAVYYCARYDPYGFYHLDYWGQGTLVTVSS
VL: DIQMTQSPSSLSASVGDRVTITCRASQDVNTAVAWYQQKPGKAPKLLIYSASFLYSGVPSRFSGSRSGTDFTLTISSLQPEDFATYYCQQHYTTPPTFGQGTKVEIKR
B26: Trastuzumab HCDR3 variant ATYSTYYNYAFGI (Fab, V domains shown)
VH: EVQLVESGGGLVQPGGSLRLSCAASGFNIKDTYIHWVRQAPGKGLEWVARIYPTNGYTRYADSVKGRFTISADTSKNTAYLQMNSLRAEDTAVYYCATYSTYYNYAFGIWGQGTLVTVSS
VL: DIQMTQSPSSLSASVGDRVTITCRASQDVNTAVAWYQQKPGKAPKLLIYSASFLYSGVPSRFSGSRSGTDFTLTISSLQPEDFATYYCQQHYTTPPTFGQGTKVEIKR
B27: Trastuzumab HCDR3 variant ARYGSSYYYYFDY (Fab, V domains shown)
VH: EVQLVESGGGLVQPGGSLRLSCAASGFNIKDTYIHWVRQAPGKGLEWVARIYPTNGYTRYADSVKGRFTISADTSKNTAYLQMNSLRAEDTAVYYCARYGSSYYYYFDYWGQGTLVTVSS
VL: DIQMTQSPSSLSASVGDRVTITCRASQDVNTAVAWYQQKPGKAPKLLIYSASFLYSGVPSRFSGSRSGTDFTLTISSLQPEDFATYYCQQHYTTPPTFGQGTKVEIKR
B28: Trastuzumab HCDR3 variant ARYRGVWYYDFDN (Fab, V domains shown)
VH: EVQLVESGGGLVQPGGSLRLSCAASGFNIKDTYIHWVRQAPGKGLEWVARIYPTNGYTRYADSVKGRFTISADTSKNTAYLQMNSLRAEDTAVYYCARYRGVWYYDFDNWGQGTLVTVSS
VL: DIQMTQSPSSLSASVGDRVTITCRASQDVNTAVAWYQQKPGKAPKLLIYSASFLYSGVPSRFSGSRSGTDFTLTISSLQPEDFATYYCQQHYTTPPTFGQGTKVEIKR
B29: Trastuzumab HCDR3 variant SRYYAGGWYYFDY (Fab, V domains shown)
VH: EVQLVESGGGLVQPGGSLRLSCAASGFNIKDTYIHWVRQAPGKGLEWVARIYPTNGYTRYADSVKGRFTISADTSKNTAYLQMNSLRAEDTAVYYCSRYYAGGWYYFDYWGQGTLVTVSS
VL: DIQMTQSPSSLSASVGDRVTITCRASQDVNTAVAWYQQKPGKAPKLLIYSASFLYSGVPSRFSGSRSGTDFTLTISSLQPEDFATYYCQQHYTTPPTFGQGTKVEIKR
B30: Trastuzumab HCDR3 variant ARYTYFGSFDFDY (Fab, V domains shown)
VH: EVQLVESGGGLVQPGGSLRLSCAASGFNIKDTYIHWVRQAPGKGLEWVARIYPTNGYTRYADSVKGRFTISADTSKNTAYLQMNSLRAEDTAVYYCARYTYFGSFDFDYWGQGTLVTVSS
VL: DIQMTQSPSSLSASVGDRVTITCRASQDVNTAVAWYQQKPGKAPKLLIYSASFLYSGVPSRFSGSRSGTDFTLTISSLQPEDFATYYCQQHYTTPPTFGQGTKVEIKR
B31: Trastuzumab HCDR3 variant ARYYGYGGYYMDY (Fab, V domains shown)
VH: EVQLVESGGGLVQPGGSLRLSCAASGFNIKDTYIHWVRQAPGKGLEWVARIYPTNGYTRYADSVKGRFTISADTSKNTAYLQMNSLRAEDTAVYYCARYYGYGGYYMDYWGQGTLVTVSS
VL: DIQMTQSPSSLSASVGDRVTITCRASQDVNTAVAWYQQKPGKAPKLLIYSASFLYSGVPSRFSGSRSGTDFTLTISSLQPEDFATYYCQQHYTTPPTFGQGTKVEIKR

Biological target: T1, HER2 (human epidermal growth factor receptor 2) (human, UniProt P04626 23-629)
T1 construct: also called Antigen: HER2
Test: SPR

Compared with B1, B3 is 1.5-fold lower in Kd: 11 nM for the first, 7.31 nM for the second.

Compared with B4, B5 is 2.4-fold higher in Kd: 8.19 nM for the first, 19.8 nM for the second. The first binds more tightly here.

First: B7
Second: B8
The Kd of the first is 7.5-fold lower: 3.39 nM for the first, 25.5 nM for the second.

B10 and B11 are within 1.5-fold of each other in Kd: 23.3 nM for the first, 15.7 nM for the second.

Compared with B12, B13 is 2.2-fold lower in Kd: 15.7 nM for the first, 7.11 nM for the second. The second binds more tightly here.

Compared with B14, B15 is 3.2-fold lower in Kd: 27 nM for the first, 8.44 nM for the second. The second binds more tightly here.

B16 and B18 are within 1.5-fold of each other in Kd: 19.6 nM for the first, 14.7 nM for the second.

Going from B22 to B23, the Kd falls from 14.3 nM to 8.05 nM (1.8-fold).

Going from B26 to B27, the Kd falls from 22.6 nM to 13.9 nM (1.6-fold).

B28 and B31 are within 1.5-fold of each other in Kd: 14.5 nM for the first, 9.91 nM for the second.

First: B1
Second: B2
The “log(KD (M))” value of the first is lower: -7.96 for the first, -7.71 for the second.

B3 and B4 are within 0.2 log units of each other in “log(KD (M))” value: -8.14 for the first, -8.09 for the second.

B5 and B6 are within 0.2 log units of each other in “log(KD (M))” value: -7.7 for the first, -7.88 for the second.

First: B7
Second: B8
The “log(KD (M))” value of the first is lower: -8.47 for the first, -7.59 for the second.

B9 and B10 are within 0.2 log units of each other in “log(KD (M))” value: -7.64 for the first, -7.63 for the second.

B11 and B12 are the same in “log(KD (M))” value: -7.8 for the first, -7.8 for the second.

Going from B13 to B14, the “log(KD (M))” value rises from -8.15 to -7.57.

First: B15
Second: B16
The “log(KD (M))” value of the first is lower: -8.07 for the first, -7.71 for the second.

B17 and B18 are within 0.2 log units of each other in “log(KD (M))” value: -7.71 for the first, -7.83 for the second.

B19 and B20 are within 0.2 log units of each other in “log(KD (M))” value: -7.7 for the first, -7.76 for the second.

B21 and B22 are within 0.2 log units of each other in “log(KD (M))” value: -7.78 for the first, -7.84 for the second.

Going from B23 to B24, the “log(KD (M))” value rises from -8.09 to -7.71.

B25 and B26 are within 0.2 log units of each other in “log(KD (M))” value: -7.62 for the first, -7.65 for the second.

B27 and B28 are within 0.2 log units of each other in “log(KD (M))” value: -7.86 for the first, -7.84 for the second.

B29 and B30 are within 0.2 log units of each other in “log(KD (M))” value: -7.93 for the first, -7.8 for the second.

In the case of B31, the “log(KD (M))” value is reported as -8.

For B2, the Kd was 19.7 nM.
With B6 the Kd was 13.2 nM.
Work on B9 yielded a Kd of 23.1 nM.
For B17, the Kd was 19.3 nM.
B19 gave a Kd of 20.2 nM.
In the case of B20, the Kd is reported as 17.4 nM.
B21 showed a Kd of 16.5 nM.
Binder B24 has a Kd of 19.4 nM.
B25 was tested, and the Kd was 24.2 nM.
B29 showed a Kd of 11.8 nM.
With B30 the Kd was 15.8 nM.
